Legend:
[1] = biological target: VvPrx3 (C73S) (Vibrio vulnificus); assay: SDS-PAGE under nonreducing conditions (intermolecular disulfide bond), time course; VvPrx3 (C73S) 70 µM reacted with 50 µM H2O2 for 0-60 s; quenched with 10 mM N-ethylmaleimide; band density by ImageJ
[2] = biological target: VvPrx3 (C73S) (Vibrio vulnificus); assay: SDS-PAGE under nonreducing or reducing conditions (intermolecular disulfide bond); reduced VvPrx3 (C73S) reacted with various concentrations of H2O2 or t-BOOH for 30 min at 298 K in 20 mM Tris-HCl pH 8.0, 150 mM NaCl; stopped with iodoacetamide; boiled with or without 10 mM DTT

VvPrx3 (C73S) (enzyme)
protein linked by a disulfide bond at 30 s (70 µM protein, 50 µM H2O2) [1]: 30 µM | stoichiometry N [2]: 2

Source: PMC5755580
